Reference: US20230055711A1 (BIOSION, published 2023)
Read-outs that look alike come from different tables or passages of the source.

Columns and labels:
[1] = target: recombinant human BCMA-his protein (Acro biosystems, Cat #BCA-H522Y) (human) (UniProt Q02223); experiment: capture ELISA: antibody captured on the plate, biotin-labeled human BCMA-his detected with streptavidin-HRP
[2] = target: recombinant human BCMA-his protein (Acro biosystems, Cat #BCA-H522Y) (human) (UniProt Q02223); experiment: competitive ELISA: coated human BCMA-his, blocked ligand biotin-labeled BAFF-Fc
[3] = target: recombinant human BCMA-his protein (Acro biosystems, Cat #BCA-H522Y) (human) (UniProt Q02223); experiment: capture ELISA: antibody captured on the plate, biotin-labeled human BCMA-his detected with streptavidin-HRP; remark: listed apart in the source
[4] = target: recombinant human BCMA-his protein (Acro biosystems, Cat #BCA-H522Y) (human) (UniProt Q02223); experiment: SPR Biacore, antibody captured by anti-human IgG on CM5, BCMA-his flowed
[5] = target: recombinant human BCMA-his protein (Acro biosystems, Cat #BCA-H522Y) (human) (UniProt Q02223); experiment: competitive ELISA: coated human BCMA-his, blocked ligand biotin-labeled BAFF-Fc; remark: listed apart in the source
[6] = target: recombinant human BCMA-his protein (Acro biosystems, Cat #BCA-H522Y) (human) (UniProt Q02223); experiment: SPR Biacore T200, antibody captured on Protein G chip, BCMA-his flowed
[7] = target: recombinant human BCMA-his protein (Acro biosystems, Cat #BCA-H522Y) (human) (UniProt Q02223); experiment: competitive ELISA: antibody pre-mixed with biotin-labeled human BCMA-his, competitor coated BCMA BM1 (self-competition)
[8] = target: recombinant human BCMA-his protein (Acro biosystems, Cat #BCA-H522Y) (human) (UniProt Q02223); experiment: BLI Octet RED96, antibody on AHC sensor, BCMA-his in solution
[9] = target: recombinant human BCMA-his protein (Acro biosystems, Cat #BCA-H522Y) (human) (UniProt Q02223); experiment: competitive ELISA: antibody pre-mixed with biotin-labeled human BCMA-his, competitor coated BCMA BM1 (self-competition); remark: listed apart in the source
human BCMA on U266 cells = target: T1, human BCMA on U266 cells (human, UniProt Q02223 1-184); experiment: cell based binding FACS on U266 cells, MFI
T1 construct: whole, on cells; Endogenous protein of the cell line; also called human BCMA on the cell surface; U266 cells expressing human BCMA
T1 sequence (looked up): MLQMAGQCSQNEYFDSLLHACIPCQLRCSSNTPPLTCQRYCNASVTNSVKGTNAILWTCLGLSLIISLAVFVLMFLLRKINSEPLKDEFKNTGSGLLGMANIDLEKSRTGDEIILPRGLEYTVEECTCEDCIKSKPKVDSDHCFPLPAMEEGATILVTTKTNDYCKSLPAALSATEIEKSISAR

[10] = target: recombinant human BCMA-his protein (Acro biosystems, Cat #BCA-H522Y) (human) (UniProt Q02223); experiment: SPR Biacore T200, antibody captured by anti-mouse IgG on CM5, BCMA-his flowed
[11] = target: recombinant human BCMA-his protein (Acro biosystems, Cat #BCA-H522Y) (human) (UniProt Q02223); experiment: competitive ELISA: antibody pre-mixed with biotin-labeled human BCMA-his, competitor coated BCMA BM1
[12] = target: recombinant human BCMA-his protein (Acro biosystems, Cat #BCA-H522Y) (human) (UniProt Q02223); experiment: SPR Biacore, antibody captured on CM5 chip, BCMA-his flowed
[13] = target: T2, human BCMA on 293F-BCMA cells (human, UniProt Q02223 1-184); experiment: cell based binding FACS on 293F cells expressing human BCMA, MFI
T2 construct: Stably expressed on 293F cells prepared in house; also called 293F cells expressing human BCMA; Full length human BCMA
T2 sequence: T1 sequence (looked up)

[14] = target: recombinant human BCMA-his protein (Acro biosystems, Cat #BCA-H522Y) (human) (UniProt Q02223); experiment: competitive ELISA: antibody pre-mixed with biotin-labeled human BCMA-his, competitor coated BCMA BM1; remark: listed apart in the source
[15] = target: T3, cynomolgus BCMA-his protein (Acro biosystems, Cat #BCA-052H7) (cynomolgus monkey, UniProt A0A2K5UD97 1-53); experiment: indirect ELISA on coated cynomolgus BCMA-his
T3 construct: Bought; also called cynomolgus monkey BCMA protein; not shown: his tag
T3 sequence (A0A2K5UD97 entry or part of it): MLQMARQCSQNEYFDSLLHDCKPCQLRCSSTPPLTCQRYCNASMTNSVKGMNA

BCMA BM1, full-length antibody containing the BCMA-binding portion of GSK2857916
EC50 [1]: 1.11 nM | IC50 [2]: 12.6 nM | EC50 [3]: 0.569 nM | Kd [4]: 0.578 nM | koff [4]: 0.000141 s⁻¹ | kon [4]: 244000 M⁻¹ s⁻¹ | IC50 [5]: 10.7 nM | Kd [6]: 0.742 nM | koff [6]: 0.000245 s⁻¹ | kon [6]: 330000 M⁻¹ s⁻¹ | IC50 [7]: 2.89 nM | Kd [8]: 0.436 nM | koff [8]: 0.000125 s⁻¹ | kon [8]: 286000 M⁻¹ s⁻¹ | IC50 [9]: 2.64 nM

B1: mouse anti-BCMA monoclonal antibody B1H2 (antibody, V domains shown)
VH: EVQLQQSGPELVKPGASVKMSCKASGYTLTNYVMHWMKQKPGQGLEWIGFIIPFNDGTKYNEHFKGKATLTSDKSSNTAYMVLSSLTSEDSAVYYCARYDFEGYFDVWGAGTTVTVSS
VL: DIQMTQTTSSLSASLGDRVTISCSASQDITNFLNWYQQKPDGTVKLLIYSTSRLHSGVPSRFSGSGSGTDYSLTISNLEPEDIATYYCQQYSNLPWTFGGGTNLEIK
notes: Hybridoma-derived mouse mAb purified on Protein A; also called Mouse B1H2; mouse antibody B1H2
EC50 (human BCMA on U266 cells): 0.885 nM | EC50 [1]: 0.702 nM | Kd [10]: 0.203 nM | koff [10]: 0.0011 s⁻¹ | kon [10]: 5.42e+06 M⁻¹ s⁻¹ | IC50 [11]: 0.282 nM | IC50 [2]: 8.28 nM | EC50 [3]: 0.177 nM | IC50 [5]: 6.09 nM | Kd [12]: 0.0757 nM | koff [12]: 0.000783 s⁻¹ | kon [12]: 1.03e+07 M⁻¹ s⁻¹ | EC50 [13]: 0.613 nM | IC50 [14]: 1.03 nM | EC50 [15]: 31.4 nM
